# Laboratory results as given in patent US20110065649A1 (CENTRE NATIONAL DE LA RECHERCHE SCIENTIFIQUE CNRS, published 2011).
# Square brackets hold non-standard residues; d marks the D form. Ends that are not written are not given here. KΨPR = pseudopeptide unit Lys-Ψ(CH2-N)-Pro-Arg; Aib = CC(C)(N)C(=O)O
# B1: hexavalent compound Nucant 6 (peptide)
# chain: Ac-K(KΨPR)[Aib]GK(KΨPR)[Aib]GK(KΨPR)[Aib]GK(KΨPR)[Aib]GK(KΨPR)[Aib]GK(KΨPR)[Aib]G-NH2
# peptide: Lys-Pro-Arg
# modifications: also: chain 2 is the KΨPR unit, one copy bound via its C-terminus as amide on the ε-amine of each of the 6 Lys of chain 1, reduced bond Ψ(CH2-N) between K and P of chain 2
# Molecular target: surface nucleolin on human cells (human, UniProt P19338 2-710)
# Sequence (P19338 2-710): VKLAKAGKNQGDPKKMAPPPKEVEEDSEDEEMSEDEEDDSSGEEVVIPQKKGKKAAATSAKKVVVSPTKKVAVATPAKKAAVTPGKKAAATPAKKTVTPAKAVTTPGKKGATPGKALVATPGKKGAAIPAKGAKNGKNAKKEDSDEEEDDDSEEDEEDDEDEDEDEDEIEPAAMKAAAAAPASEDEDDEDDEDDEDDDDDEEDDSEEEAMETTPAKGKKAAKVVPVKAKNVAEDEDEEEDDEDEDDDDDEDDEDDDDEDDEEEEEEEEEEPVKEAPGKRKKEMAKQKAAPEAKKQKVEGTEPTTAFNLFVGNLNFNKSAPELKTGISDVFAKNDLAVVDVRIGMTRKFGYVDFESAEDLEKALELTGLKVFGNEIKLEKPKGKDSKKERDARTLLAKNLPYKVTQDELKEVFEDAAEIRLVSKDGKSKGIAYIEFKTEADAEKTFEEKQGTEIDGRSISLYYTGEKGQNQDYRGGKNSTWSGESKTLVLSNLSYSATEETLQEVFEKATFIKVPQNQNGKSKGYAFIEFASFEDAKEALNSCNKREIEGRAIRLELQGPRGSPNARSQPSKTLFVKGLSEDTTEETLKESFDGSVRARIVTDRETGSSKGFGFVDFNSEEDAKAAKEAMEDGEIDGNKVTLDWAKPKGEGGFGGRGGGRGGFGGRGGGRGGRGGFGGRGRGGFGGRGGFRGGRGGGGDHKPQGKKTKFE
# Assay: cell-based or functional assay
binder,measurement,value
B1,ID50 (Inhibitory Dose at 50%) of surface nucleolin activity in HeLa P4 cells,< 0.1 µM
